Values quoted from earlier work, collected in publication PMC5578174.

Experiments:
Ang-2 (Homo sapiens) = Ang-2 (Homo sapiens) (UniProt O15123)
PDGFRα (Homo sapiens) = PDGFRα (Homo sapiens) (UniProt P16234)
Chain of PDGFRα (Homo sapiens) (P16234 24-528): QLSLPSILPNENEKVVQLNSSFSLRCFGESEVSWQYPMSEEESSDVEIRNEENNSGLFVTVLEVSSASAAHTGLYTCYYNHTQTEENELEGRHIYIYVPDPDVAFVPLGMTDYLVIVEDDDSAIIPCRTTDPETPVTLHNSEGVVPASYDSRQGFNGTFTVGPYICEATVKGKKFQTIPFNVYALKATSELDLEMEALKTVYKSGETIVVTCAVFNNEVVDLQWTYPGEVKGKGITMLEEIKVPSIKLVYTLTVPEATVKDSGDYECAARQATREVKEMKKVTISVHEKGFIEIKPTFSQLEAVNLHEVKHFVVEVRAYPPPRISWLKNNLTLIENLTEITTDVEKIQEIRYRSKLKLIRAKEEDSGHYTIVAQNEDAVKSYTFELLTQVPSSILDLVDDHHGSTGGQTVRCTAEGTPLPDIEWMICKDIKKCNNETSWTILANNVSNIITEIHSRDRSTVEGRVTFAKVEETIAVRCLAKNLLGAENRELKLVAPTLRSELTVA

Chain of Ang-2 (Homo sapiens) (O15123 19-496): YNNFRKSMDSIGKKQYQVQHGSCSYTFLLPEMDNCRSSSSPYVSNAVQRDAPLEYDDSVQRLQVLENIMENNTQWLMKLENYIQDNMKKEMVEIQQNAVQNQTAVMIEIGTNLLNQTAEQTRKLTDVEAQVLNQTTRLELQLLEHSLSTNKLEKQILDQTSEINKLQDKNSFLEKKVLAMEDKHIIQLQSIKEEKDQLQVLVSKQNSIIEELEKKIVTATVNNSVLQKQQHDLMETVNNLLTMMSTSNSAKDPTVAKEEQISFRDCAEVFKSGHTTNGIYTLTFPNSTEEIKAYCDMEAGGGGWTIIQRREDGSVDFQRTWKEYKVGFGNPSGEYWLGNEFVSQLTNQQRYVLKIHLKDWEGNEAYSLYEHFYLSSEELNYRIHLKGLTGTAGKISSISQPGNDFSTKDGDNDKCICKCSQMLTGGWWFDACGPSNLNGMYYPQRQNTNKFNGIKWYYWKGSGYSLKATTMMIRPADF

Kd (Ang-2 (Homo sapiens)) [pM]	Kd (PDGFRα (Homo sapiens)) [pM]	Substance
24	–	Nesvacumab
–	40	Olaratumab
